Legend:
[1] = molecular target: ubiquitinated peptide 20 (full Ub linked through a native isopeptide bond to the H2B 8-mer AVTKYTSK) (human)
[2] = molecular target: ubiquitinated peptide 24 (full Ub linked through a native isopeptide bond to a 31-mer from the C-terminus of H2B) (human)
[3] = molecular target: doubly labelled ubiquitinated peptide 32: Dnp-labelled Ub linked through a native isopeptide bond to MCA-(Nle)FKTEG (FRET substrate) (human)

recombinant human UCH-L3 (ubiquitin C-terminal hydrolase) (from UniProt P15374) (enzyme)
percent hydrolysis, HPLC (% hydrolysis within 30 minutes) [1]: 75
percent hydrolysis, HPLC (% hydrolysis within 30 minutes) [2]: 25
increase of fluorescence emission upon cleavage (FRET assay) (fold increase in fluorescence) [3]: 6

— patent US20130143251A1
